From paper PMC3763809

Biological target: nucleosome containing the H3(1-132)-QFI chimera (Drosophila | budding yeast), P02299
Assay: ITC

Kd: 300 nM
B1: budding yeast CENP-C motif (domain or fragment)
chain: GLRKSTRVKVAPLQYWRNEKIVY
modifications: not checked
